Source: PMC10645074, “Insulin receptor Arg717 and IGF-1 receptor Arg704 play a key role in ligand binding and in receptor activation” (Open Biology, 2023)

Biological target: T1, 125I-TyrA14 human insulin (human, 125I on TyrA14 (specific activity 2200 Ci/mmol))
T1 construct: insulin A chain, human, cut product of proinsulin; insulin B chain, human, cut product of proinsulin; also called ^125I-HI; HI
Test: radioligand binding; saturation binding of the 125I-labelled ligand (0.05-5 nM) to isolated ectodomain-mCherry (300 ng/well) immobilised through its HisTag on 96-well plates by nickel-NTA iBodies with biotin on neutravidin; otherwise as the whole-cell assay; one-site specific binding fit
Settings: both partners purified

B1: isolated ecto-IR-A Arg717Gln conjugated with mCherry (domain or fragment)
chain 1: HLYPGEVCPGMDIRNNLTRLHELENCSVIEGHLQILLMFKTRPEDFRDLSFPKLIMITDYLLLFRVYGLESLKDLFPNLTVIRGSRLFFNYALVIFEMVHLKELGLYNLMNITRGSVRIEKNNELCYLATIDWSRILDSVEDNYIVLNKDDNEECGDICPGTAKGKTNCPATVINGQFVERCWTHSHCQKVCPTICKSHGCTAEGLCCHSECLGNCSQPDDPTKCVACRNFYLDGRCVETCPPPYYHFQDWRCVNFSFCQDLHHKCKNSRRQGCHQYVIHNNKCIPECPSGYTMNSSNLLCTPCLGPCPKVCHLLEGEKTIDSVTSAQELRGCTVINGSLIINIRGGNNLAAELEANLGLIEEISGYLKIRRSYALVSLSFFRKLRLIRGETLEIGNYSFYALDNQNLRQLWDWSKHNLTITQGKLFFHYNPKLCLSEIHKMEEVSGTKGRQERNDIALKTNGDQASCENELLKFSYIRTSFDKILLRWEPYWPPDFRDLLGFMLFYKEAPYQNVTEFDGQDACGSNSWTVVDIDPPLRSNDPKSQNHPGWLMRGLKPWTQYAIFVKTLVTFSDERRTYGAKSDIIYVQTDATNPSVPLDPISVSNSSSQIILKWKPPSDPNGNITHYLVFWERQAEDSELFELDYCLKGLKLPSRTWSPPFESEDSQKHNQSEYEDSAGECCSCPKTDSQILKELEESSFRKTFEDYLHNVVFVPQPS
chain 2: SLGDVGNVTVAVPTVAAFPNTSSTSVPTSPEEHRPFEKVVNKESLVISGLRHFTGYRIELQACNQDTPEERCSVAAYVSARTMPEAKADDIVGPVTHEIFENNVVHLMWQEPKEPNGLIVLYEVSYRRYGDEELHLCVSRKHFALERGCRLRGLSPGNYSVRIRATSLAGNGSWTEPTYFYVTDYLDVPSNIAK
With B1 the Kd was 0.27 nM.
